Data as given in the supplement of paper PMC9170038.

System: MS2 coat protein
Test: apparent KD of MS2 coat protein; higher = weaker reporter binding
Settings: Eterna round: R107
How it was run: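 Designed RNA switches were transcribed on-chip from Illumina sequencing clusters. They were then titrated with SNAP-549-labelled MS2 coat protein (twofold steps, 0.7 or 1.5 nM to 3 µM; 0.8–1.5 h to 10–20 min per step) in 100 mM Tris-HCl pH 7.5, 80 mM KCl, 4 mM MgCl2, without or with constant ligand. Apparent KD is the per-design median of normalised cluster binding-curve fits.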

[1] = input ligand: theophylline 20 uM
[2] = input ligand: tryptophan 2.4 mM
[3] = input ligand: theophylline 2 mM

AGCGACAUGCGUGAUACCAGCUACAUGAGGAUCACCCAUGUAAGUAGGAAACUACUGUGUAGCCCUUGGCAGCACAAUGCAUGUC [Exclusion - Theophylline B (Freestyle 24)]
apparent KD of MS2 coat protein (input ligand: arginine 13.2 mM): 0.0203 µM | apparent KD of MS2 coat protein [1]: 0.0372 µM | apparent KD of MS2 coat protein [2]: 0.02 µM

AGCGAGAUCCGUGAUACCAGCUACAUGAGGAUCACCCAUGUGAGCGCGAAAGUGCUGUGUAGCCCUUGGCAGCACAGUGGAUCUC [#29 Exclusion-TheophyllineB]
apparent KD of MS2 coat protein (input ligand: arginine 13.2 mM): 0.00884 µM | apparent KD of MS2 coat protein [1]: 0.0146 µM | apparent KD of MS2 coat protein [2]: 0.0113 µM

AGCGCGAAUAGAUCCAAAGUUAUUAGUGAGCGAGGACCGGUACGGCCGCCACUCGUGGCUCUACAUGAGGAUCACCCAUGUACAU [theeternabot_exclusion_MS2_Trp_A_10]
apparent KD of MS2 coat protein (input ligand: arginine 13.2 mM): 0.0522 µM | apparent KD of MS2 coat protein [1]: 0.234 µM | apparent KD of MS2 coat protein [3]: 0.384 µM

AGCGUGCAUAGGAAAACUAUGUACGCAAAUCGAGGACCGGUACGGCCGCCACUCGUCCUCAACAUGAGGAUCACCCAUGUAAUAA [Mat - Exclusion - Trytophan A - D9]
apparent KD of MS2 coat protein (input ligand: arginine 13.2 mM): 0.0189 µM | apparent KD of MS2 coat protein [1]: 0.0267 µM | apparent KD of MS2 coat protein [3]: 0.0225 µM

AGCUCGCGAAAGCGAGCAACAUGAUCCGAAGGAGCGCGCGAAAGCGCAGGUAGGUCGCGGACAUGAGGAUCACCCAUGUCUCCUU [MAT - Exclusion Arginine A - Mod of Eli - D14]
apparent KD of MS2 coat protein (input ligand: arginine 13.2 mM): 0.041 µM | apparent KD of MS2 coat protein (input ligand: none): 0.0662 µM | apparent KD of MS2 coat protein [1]: 0.0573 µM | apparent KD of MS2 coat protein [3]: 0.0632 µM | apparent KD of MS2 coat protein [2]: 0.0622 µM

AGCUCUGAUACGGCCGCCACUAGAUGGUGUUGUAAGAGACGCCUACAUGAGGAUCACCCAUGUCAUAGGACCGGGUAUAAAUACA [theeternabot_sameState_MS2_Trp_B_8]
apparent KD of MS2 coat protein (input ligand: arginine 13.2 mM): 0.0278 µM | apparent KD of MS2 coat protein (input ligand: none): 0.0264 µM | apparent KD of MS2 coat protein [1]: 0.0307 µM | apparent KD of MS2 coat protein [3]: 0.0464 µM | apparent KD of MS2 coat protein [2]: 0.0182 µM

AGGAAGACGAUGGAUACCAGACAACCAGGGAACAUGAGGAUCACCCAUGUGAUUGAAAGGGUCCCUUGGCAGCCAGAAGCCGUUG [theeternabot_sameState_MS2_Theo_B_31]
apparent KD of MS2 coat protein (input ligand: arginine 13.2 mM): 0.0685 µM | apparent KD of MS2 coat protein [1]: 0.173 µM | apparent KD of MS2 coat protein [2]: 0.13 µM

AGGACAUCGGGAAGGAGCGCAUCCAAACCACACAUGAGGAUCACCCAUGUAUAAAUAUGCAUGCAGGUAGGUCGCCCGGUGUCUC [Veaza]
apparent KD of MS2 coat protein (input ligand: arginine 13.2 mM): 0.077 µM | apparent KD of MS2 coat protein (input ligand: none): 0.109 µM | apparent KD of MS2 coat protein [1]: 0.14 µM | apparent KD of MS2 coat protein [3]: 0.137 µM | apparent KD of MS2 coat protein [2]: 0.108 µM

AGGUACGAAAACGUGGGUGAGUCGUACCAACGAGGACCGGUACGGCCGCCACUCGAAUAAACAUGAGGAUCACCCAUGUAAUAAU [T''-M-T'-T-MS2 - Design 6]
apparent KD of MS2 coat protein (input ligand: arginine 13.2 mM): 0.025 µM | apparent KD of MS2 coat protein [1]: 0.0583 µM | apparent KD of MS2 coat protein [3]: 0.0665 µM

AGUAGCUGCCGAAGGAGCGCCGUGUUCCUACAUGAGGAUCACCCAUGUAGCGUUGGGUUACGGCAGGUAGGUCGCGGCAGAUAGG [#18 Same State - Arginine B]
apparent KD of MS2 coat protein (input ligand: arginine 13.2 mM): 0.0231 µM | apparent KD of MS2 coat protein (input ligand: none): 0.03 µM | apparent KD of MS2 coat protein [1]: 0.0382 µM | apparent KD of MS2 coat protein [3]: 0.0245 µM | apparent KD of MS2 coat protein [2]: 0.0224 µM

AGUAGUUGACAAAAGUCAGCUACAACUGAAGGAGCGGGUGGGUGCCCAGGUAGGUCGCAGGAACAUGAGGAUCACCCAUGUAUAA [ArgAS 3 #BothOrNeither #OpenEnded]
apparent KD of MS2 coat protein (input ligand: arginine 13.2 mM): 0.0359 µM | apparent KD of MS2 coat protein (input ligand: none): 0.0227 µM | apparent KD of MS2 coat protein [1]: 0.0403 µM | apparent KD of MS2 coat protein [3]: 0.0322 µM | apparent KD of MS2 coat protein [2]: 0.0185 µM

AGUCUUGUAGGAAGGAGCGCAUACUUCACAUGAGGAUCACCCAUGUCAAGACGUGAGUCAGUGCAGGUAGGUCGCCUAACUAAGA [Same State - Arginine B (Freestyle 14)]
apparent KD of MS2 coat protein (input ligand: arginine 13.2 mM): 0.0186 µM | apparent KD of MS2 coat protein (input ligand: none): 0.0173 µM | apparent KD of MS2 coat protein [1]: 0.0287 µM | apparent KD of MS2 coat protein [3]: 0.0263 µM | apparent KD of MS2 coat protein [2]: 0.018 µM

AGUGUUAUAACUGAUACCAGACCUUUGCUUAUACAUGAGGAUCACCCAUGUAAAAUGGCUGUCCCUUGGCAGCAGAGAAUACACA [#07 Same State - Theophylline B]
apparent KD of MS2 coat protein (input ligand: arginine 13.2 mM): 0.0429 µM | apparent KD of MS2 coat protein [1]: 0.0452 µM | apparent KD of MS2 coat protein [2]: 0.0471 µM

AGUUUAGACACGGCCGCCACUCGUGACAGAUUUCGCAGUGGUCAACAUGAGGAUCACCCAUGUCUGAGGACCGGGUGUUGAGUUU [XTryp B #7]
apparent KD of MS2 coat protein (input ligand: arginine 13.2 mM): 0.0452 µM | apparent KD of MS2 coat protein [1]: 0.0487 µM | apparent KD of MS2 coat protein [3]: 0.0534 µM

AUAACAUGAGGAUCACCCAUGUAAGCAGAUACCAGCUAGGAAACUAGCCCUUGGCAGCUGCAAGGUGAUCCUGCUGCCAAGGUAU [(M1)-(M2)-(T1)-(T2)-(M)'-(T)'_Design7]
apparent KD of MS2 coat protein (input ligand: arginine 13.2 mM): 0.117 µM | apparent KD of MS2 coat protein (input ligand: none): 0.233 µM | apparent KD of MS2 coat protein [1]: 0.187 µM | apparent KD of MS2 coat protein [3]: 0.13 µM | apparent KD of MS2 coat protein [2]: 0.209 µM

AUAACAUGAGGAUCACCCAUGUAAGCUGAAGGAGCGGACGAAAGUCCAGGUAGGUCGCAGCGCUCCUUCUGGUGAUCUGAAGGAG [(M1)-(M2)-(Arg1)-(Arg2)-(A)'-(M)'-(A)''_Design3]
apparent KD of MS2 coat protein (input ligand: arginine 13.2 mM): 0.103 µM | apparent KD of MS2 coat protein (input ligand: none): 0.151 µM | apparent KD of MS2 coat protein [1]: 0.154 µM | apparent KD of MS2 coat protein [3]: 0.0878 µM | apparent KD of MS2 coat protein [2]: 0.138 µM

AUAACAUGAGGAUCACCCAUGUAUUGGUAACGAGGACCGGUACGGCCGCCACUCGUAUUUUGGUGGUAUUAUAUAUAUAUGAUUA [JR_SSTryptoA_Sub017]
apparent KD of MS2 coat protein (input ligand: arginine 13.2 mM): 0.0241 µM | apparent KD of MS2 coat protein [1]: 0.0289 µM | apparent KD of MS2 coat protein [3]: 0.0206 µM

AUAACGAGUGGUGGAUAAUCCUCAUGUAAACGAGGACCGGUACGGCCGCCACUCGAUAACAUGAGGAUCACCCAUGUAAUAAUAA [|T'-M'-Trp-Ms2|_Design17]
apparent KD of MS2 coat protein (input ligand: arginine 13.2 mM): 0.0259 µM | apparent KD of MS2 coat protein [1]: 0.0208 µM | apparent KD of MS2 coat protein [3]: 0.0213 µM

AUAAUUGGGUUAAUUAGUUUUAGGUCCAGUCGAGGACCGGUACGGCCGCCACUCGUUCCGAGAUACAUGAGGAUCACCCAUGUUA [JR_ExcTryptoA_Sub015]
apparent KD of MS2 coat protein (input ligand: arginine 13.2 mM): 0.0173 µM | apparent KD of MS2 coat protein [1]: 0.0345 µM | apparent KD of MS2 coat protein [3]: 0.031 µM

AUACAUGAGGAUCACCCAUGUAUAGUUGAAGGAGCGACCAGAGGGUCAGGUAGGUCGCAGCACAUGAGGAUCACCCAUGUAUUUU [#1 Exclusion - Arginine A Attempt #14 (Inspired by Pi)]
apparent KD of MS2 coat protein (input ligand: arginine 13.2 mM): 0.0326 µM | apparent KD of MS2 coat protein (input ligand: none): 0.038 µM | apparent KD of MS2 coat protein [1]: 0.0403 µM | apparent KD of MS2 coat protein [3]: 0.0351 µM | apparent KD of MS2 coat protein [2]: 0.0273 µM

AUACAUGAGGAUCACCCAUGUCAUUCAGAAGGAGCGUCAUUUUAGACAGGUAGGUCGCUGAUAUUAUCUUUAUACUUUAUGUUUA [JR_ExcArginiA_Sub023]
apparent KD of MS2 coat protein (input ligand: arginine 13.2 mM): 0.0191 µM | apparent KD of MS2 coat protein (input ligand: none): 0.0183 µM | apparent KD of MS2 coat protein [1]: 0.0273 µM | apparent KD of MS2 coat protein [3]: 0.0182 µM | apparent KD of MS2 coat protein [2]: 0.0199 µM

AUACAUGAGGAUCACCCAUGUUACACUGAAGGAGCGACAUGUUUGUCAGGUAGGUCGCAGUGAAGUUUAAUAAAUAGUUGAUCUU [#07 Same State - Arginine A]
apparent KD of MS2 coat protein (input ligand: arginine 13.2 mM): 0.0376 µM | apparent KD of MS2 coat protein (input ligand: none): 0.057 µM | apparent KD of MS2 coat protein [1]: 0.0568 µM | apparent KD of MS2 coat protein [3]: 0.0626 µM | apparent KD of MS2 coat protein [2]: 0.037 µM

AUACAUGAGGCGGCCGCCACUUUACAUGAGGAUCAACAUGAGGAUCACCCAUGUUACAUGUGGAUAAGGACCGGGCCUCAUGUAU [Same State Tryptophan B 2]
apparent KD of MS2 coat protein (input ligand: arginine 13.2 mM): 0.0519 µM | apparent KD of MS2 coat protein (input ligand: none): 0.18 µM | apparent KD of MS2 coat protein [1]: 0.178 µM | apparent KD of MS2 coat protein [3]: 0.313 µM | apparent KD of MS2 coat protein [2]: 0.0912 µM

AUACCUAAUGUUACAUUUUCCUUUUCAGAUACCAGACUUUACGUUGUCCCUUGGCAGCUGUAUCACAUGAGGAUCACCCAUGUUG [JR_SSTheophyA_Sub009]
apparent KD of MS2 coat protein (input ligand: arginine 13.2 mM): 0.0173 µM | apparent KD of MS2 coat protein [1]: 0.0207 µM | apparent KD of MS2 coat protein [2]: 0.017 µM

AUACGUAACAGAAGGAGCGCACCGACAUGAGGAUCACCCAUGUGGGAUGGGACUCUUUUGGUGCAGGUAGGUCGCUGUCACGCAU [Beatattian]
apparent KD of MS2 coat protein (input ligand: arginine 13.2 mM): 0.0237 µM | apparent KD of MS2 coat protein (input ligand: none): 0.0414 µM | apparent KD of MS2 coat protein [1]: 0.0994 µM | apparent KD of MS2 coat protein [3]: 0.0612 µM | apparent KD of MS2 coat protein [2]: 0.0403 µM

AUAUCAUAGAGUGAUACCAGACUACAUGAGGAUCACCCAUGUGACAUUUAAAUAUCAUUUGUCCCUUGGCAGCACAUUAAGUACA [JR_Nu_ExcTheophyB_Sub020]
apparent KD of MS2 coat protein (input ligand: arginine 13.2 mM): 0.0506 µM | apparent KD of MS2 coat protein [1]: 0.0798 µM | apparent KD of MS2 coat protein [2]: 0.0616 µM
